Measured values as given in US20220152103A1 (LEUCID BIO, published 2022).

Molecular target: T1, human HER2 on tumor cells (MDA-MB-468-HER2++ cells transduced with human HER2; T47D cells) (human, UniProt P04626 23-1255)
T1 construct: whole, on cells; also called ErbB2
Experiment: flow cytometry sorting of MDA-MB-468-HER2++ cells

B1: ICR12 rat anti-human HER2 antibody (antibody, V domains shown)
VH: EVQLQESGPGLVKPSQSLSLTCSVTGYSITTDYWGWIRKFPGNKMEWMGYISYSGSTGYNPSLKSRISITRDTSKSQFFLQLNSVTTEDTATYYCARYSSLDYWGRGVMVAVSS
VL: DVVMTQTPPSLSVAIGQSVSISCKSSQSLVYSDGKTYLHWLLQSPGRSPKRLIYQVSNLGSGVPDRFSGTGSQKDFTLKISRVEAEDLGVYYCAQTTHFPLTFGSGTKLEIK
notes: VH and VL stand within it
**Q.** Does B1 bind?
**A.** binds
